This data set deals with GST-VPg (Tulane virus) (Tulane virus). Kind of data set: ELASA.

These results are taken from PMC8473235.

As for “AGTATACGTATTACCTGCAGCAAGGCTTTTTTAAAGGCTAGGCTTGATAATCGGTTAACTCCGATATCTCGGAGATCTTGC [N4-2]”, the binding signal (positive:negative absorbance ratio) was over 10.

In the case of “AGTATACGTATTACCTGCAGCAGGGATGTGTTGGATGCATGCCAGGCTTGGTAACATTGTACGATATCTCGGAGATCTTGC [N3]”, the binding signal (positive:negative absorbance ratio) was over 10.

On to “AGTATACGTATTACCTGCAGCAGTGGGTGGTGATGAATTCTGGTCGCGCTGACAACCCGCGCGATATCTCGGAGATCTTGC [N14]”, for which the binding signal (positive:negative absorbance ratio) was over 10. For “AGTATACGTATTACCTGCAGCCAGAGTTGATGTAAGCTTCGTGTTAGCTCAACTCTTATCGCGATATCTCGGAGATCTTGC [N6]”, the binding signal (positive:negative absorbance ratio) was over 10.

Take “AGTATACGTATTACCTGCAGCCGGGTCTCGTCTATGCAGTACTCAAAACGCTTGAGGTACCGACGATATCTCGGAGATCTTGC [N1-2]”: the binding signal (positive:negative absorbance ratio) is over 10. For the sequence “AGTATACGTATTACCTGCAGCTAGTAACGATTACCAAAATTCTCCCGAGGCTGACAACCCGCGATATCTCGGAGATCTTGC [T1-2]”, the binding signal (positive:negative absorbance ratio) is over 10. Regarding “AGTATACGTATTACCTGCAGCTCACACTCGTTTCTATTACTAAAACATCGTTCCTTTCAGCCGATATCTCGGAGATCTTGC [T5 (= N12-2)]”, the binding signal (positive:negative absorbance ratio) is over 10. To “AGTATACGTATTACCTGCAGCTCGAGGTATGGCCTTGTCTAGGCGCACCTGACAACCCGGTGCGATATCTCGGAGATCTTGC [T9-2]” belongs over 10. For “AGTATACGTATTACCTGCAGCTCTTCGGTTTAATAAAGTTGGCTAGGAAAGTTTAAAACCGCGATATCTCGGAGATCTTGC [N13]” the value was over 5; for “AGTATACGTATTACCTGCAGCTGGAAGGCGGGAAGATTTTTGGTCGACCTGACAACCCGGTCGATATCTCGGAGATCTTGC [T9]”, over 10; for “AGTATACGTATTACCTGCAGCTGTCGATAAAGTGAGTTAAGTCACCGGCCCGGCCTATTCGCGATATCTCGGAGATCTTGC [N11-2]”, over 10. Consider “AGTATACGTATTACCTGCAGCTGTCGTTAATTATTCGTGATCTGACAACCCGATCACTCTCCGATATCTCGGAGATCTTGC [T10-2]”, for which the binding signal (positive:negative absorbance ratio) was over 10.
